B1: Trx-tagged ATG16L1(78 to 206) (domain or fragment, human, UniProt Q676U5 78-206, looked up)
chain: NDNQLQEMAQLRIKHQEELTELHKKRGELAQLVIDLNNQMQRKDREMQMNEAKIAECLQTISDLETECLDLRTKLCDLERANQTLKDEYDALQITFTALEGKLRKTTEENQELVTRWMAEKAQEANRLN
B2: Trx-tagged ATG16L1(78 to 247) (domain or fragment, human, UniProt Q676U5 78-247, looked up)
chain: NDNQLQEMAQLRIKHQEELTELHKKRGELAQLVIDLNNQMQRKDREMQMNEAKIAECLQTISDLETECLDLRTKLCDLERANQTLKDEYDALQITFTALEGKLRKTTEENQELVTRWMAEKAQEANRLNAENEKDSRRRQARLQKELAEAAKEPLPVEQDDDIEVIVDET
B3: Trx-ATG16L1(78 to 197) (domain or fragment, human, UniProt Q676U5 78-197, looked up)
chain: NDNQLQEMAQLRIKHQEELTELHKKRGELAQLVIDLNNQMQRKDREMQMNEAKIAECLQTISDLETECLDLRTKLCDLERANQTLKDEYDALQITFTALEGKLRKTTEENQELVTRWMAE
B4: ATG16L1(124 to 247) (domain or fragment, human, UniProt Q676U5 124-247, looked up)
chain: MQMNEAKIAECLQTISDLETECLDLRTKLCDLERANQTLKDEYDALQITFTALEGKLRKTTEENQELVTRWMAEKAQEANRLNAENEKDSRRRQARLQKELAEAAKEPLPVEQDDDIEVIVDET

Molecular target: the molecule itself
Assay: SEC-MALS

Stoichiometry N, 2:
B1, B2, B3, B4
